Each block holds one compound with its values, some of them ahead of it.
Columns and labels:
PucA-LH2 = biological target: T1, PucA-LH2 (Rhodopseudomonas palustris, UniProt P35101+P35106+Q6N9P5); test: cryo-EM structure of the complex, […] Å; assay type: binding; conditions: 9 per complex, between alpha and beta chains; noncovalent
T1 construct: gene pucAA; native nonameric LH2 complex purified in LDAO from a Rps. palustris mutant with only pucBAa; α9β9γ1; alpha Met1 modelled as Cxm; last nine alpha residues untraced
T1 sequence (P35101 whole entry): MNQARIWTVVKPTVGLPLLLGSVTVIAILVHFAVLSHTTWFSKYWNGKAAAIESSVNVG
T1 sequence (P35106 2-47 limits assumed): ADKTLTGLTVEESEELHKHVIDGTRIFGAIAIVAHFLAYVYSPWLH
T1 sequence (Q6N9P5 1-97): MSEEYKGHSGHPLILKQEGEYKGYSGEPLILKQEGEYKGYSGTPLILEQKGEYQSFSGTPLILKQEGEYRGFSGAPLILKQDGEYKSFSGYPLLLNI

[1] = biological target: PucA-LH2 α-polypeptide (α-apoprotein encoded by the pucBAa gene pair) (Rhodopseudomonas palustris); test: cryo-EM structure; single-particle cryo-EM of native LH2 complexes purified from intracytoplasmic membranes of single-pucBA deletion strains, in 0.1% LDAO, 20 mM Tris-Cl pH 8.0; C1 maps with relaxed C9 symmetry; γ encloses six of the nine α/β-heterodimers
[2] = biological target: PucE-LH2 α-polypeptide (α-apoprotein encoded by the pucBAe gene pair) (Rhodopseudomonas palustris); test: as above
[3] = biological target: PucB-LH2 α-polypeptide (α-apoprotein encoded by the pucBAb gene pair) (Rhodopseudomonas palustris); test: as above
[4] = biological target: PucD-LH2 α-polypeptide (α-apoprotein encoded by the pucBAd gene pair) (Rhodopseudomonas palustris); test: as above

stoichiometry N [1]: 9
Compound: PucA-LH2 α-polypeptide (α-apoprotein encoded by the pucBAa gene pair) (natural protein)

stoichiometry N [2]: 9
Compound: PucE-LH2 α-polypeptide (α-apoprotein encoded by the pucBAe gene pair) (natural protein)

More lines, now with the values behind:

Compound: CC(C)=CCC/C(C)=C/C=C/C(C)=C/C=C/C(C)=C/C=C/C=C(C)/C=C/C=C(C)/C=C/C=C(\C)CCCC(C)(C)O [rhodopin]
cryo-EM structure of the complex, 2.7 Å (PucA-LH2): A carotenoid, rhodopin, is sandwiched between α- and β-polypeptides

Compound: PucB-LH2 α-polypeptide (α-apoprotein encoded by the pucBAb gene pair) (natural protein)
stoichiometry N [3]: 9

Compound: PucD-LH2 α-polypeptide (α-apoprotein encoded by the pucBAd gene pair) (natural protein)
stoichiometry N [4]: 9

From publication PMC9618040, “Cryo-EM structures of light-harvesting 2 complexes from Rhodopseudomonas palustris reveal the molecular origin of absorption tuning” (Proceedings of the National Academy of Sciences of the …, 2022)
